From patent US9120851B2, “Human antibodies to human angiopoietin-like protein 4” (Regeneron Pharmaceuticals, Inc., priority 2009, dated 2015) come the findings set out here.

The assay concerns the target T1, bovine LPL (Bos taurus, UniProt P11151).
T1 sequence (P11151 29-478): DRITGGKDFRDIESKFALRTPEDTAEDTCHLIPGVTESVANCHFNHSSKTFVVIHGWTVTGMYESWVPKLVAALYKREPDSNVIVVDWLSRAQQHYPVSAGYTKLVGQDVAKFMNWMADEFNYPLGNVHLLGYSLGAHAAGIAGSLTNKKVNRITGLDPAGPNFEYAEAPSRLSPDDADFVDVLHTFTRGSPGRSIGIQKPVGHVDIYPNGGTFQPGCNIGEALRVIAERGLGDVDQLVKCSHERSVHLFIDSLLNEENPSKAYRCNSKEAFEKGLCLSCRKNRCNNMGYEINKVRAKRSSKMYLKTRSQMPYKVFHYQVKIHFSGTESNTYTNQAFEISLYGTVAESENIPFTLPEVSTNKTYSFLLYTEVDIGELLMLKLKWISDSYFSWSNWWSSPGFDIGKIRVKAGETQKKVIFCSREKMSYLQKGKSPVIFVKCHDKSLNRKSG
Briefly: Dose-response of ANGPTL4 protein in the LPL assay. It is filed as biochemical. To be noted: full dose-response of ANGPTL4 protein, determined for each experiment. Here is the method: Briefly, 2 nM bovine LPL, 0.25 μM human ApoCII (a cofactor of LPL), 2 mg/mL BSA and 1.6 mM CaCl2, were premixed in a 96-well assay plate. Either hANGPTL4-His or hANGPTL4-mFc protein was added to the Apo/LPL mixture to a final concentration of 10 nM and 2 nM, respectively. The Apo/LPL/ANGPTL4 protein mixtures were then added together with serially diluted anti-hANGPTL4 antibodies with a starting concentration of 300 nM (for inhibition of hANGPTL4-His) or 100 nM (for inhibition of hANGPTL4-mFc) and incubated at room temperature for 30 minutes (final volume 50 μl). Following the incubation, 200 μl of reconstituted lipase substrate, 1-trinitrophenyl-amino-dodecanoyl-2-pyrendecanoyl-3-0-hexadecyl-sn-glycerol (LS-A, Progen), was added to the antibody mixture and incubated at 37° C. for two hours. Fluorescence was then measured at 342 nm/400 nm (excitation/emission) using a FlexStation® 3 Microplate Reader (Molecular Devices, CA). Fluorescence is directly proportional to LPL activity. Control I: a rabbit polyclonal antibody specific for hANGPTL4 (BioVendor). […] NT: not tested. […]

B1: His-MfANGPTL4 (26-148): cynomolgus monkey ANGPTL4 N-terminal region (residues 26-148) with an N-terminal hexa-histidine tag (SEQ ID NO:488) (protein)
chain: MHHHHHHGPVQSKSPRFASWDEMNVLAHGLLQLGQGLREHAERTRSQLNALERRLSACGSACQGTEGSTALPLAPESRVDPEVLHSLQTQLKAQNSRIQQLFHKVAQQQRHLEKQHLRIQRLQSQVGLLD
On to B1, for which the EC50 is 3.89 nM.

For orientation: EC50 means the concentration that produces a half-maximal response.
